Normalized luminescence ratio (NLR) data for 1 molecule are collected here from doi:10.1101/2022.10.27.514150.

The assay has as its target Gluc1-E2F4 (human), Q16254. Put plainly: split reporter. The following applies: remark: other sources report otherwise.

Chain of Gluc1-E2F4 (human), Q16254 (Q16254 whole entry): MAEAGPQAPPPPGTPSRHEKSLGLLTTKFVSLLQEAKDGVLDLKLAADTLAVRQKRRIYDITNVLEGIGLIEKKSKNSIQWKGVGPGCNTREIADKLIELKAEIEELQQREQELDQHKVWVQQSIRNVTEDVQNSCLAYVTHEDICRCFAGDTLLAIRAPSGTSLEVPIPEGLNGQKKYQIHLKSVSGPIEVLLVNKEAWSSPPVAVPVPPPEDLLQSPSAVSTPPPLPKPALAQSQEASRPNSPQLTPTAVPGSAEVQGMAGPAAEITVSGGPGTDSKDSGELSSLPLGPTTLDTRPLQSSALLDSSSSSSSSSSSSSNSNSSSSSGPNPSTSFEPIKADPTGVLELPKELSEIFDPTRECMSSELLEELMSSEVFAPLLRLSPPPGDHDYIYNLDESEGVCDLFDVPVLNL

B1: Gluc2-p130, Q08999 1-1139 (natural protein)
chain: MPSGGDQSPPPPPPPPAAAASDEEEEDDGEAEDAAPPAESPTPQIQQRFDELCSRLNMDEAARAEAWDSYRSMSESYTLEGNDLHWLACALYVACRKSVPTVSKGTVEGNYVSLTRILKCSEQSLIEFFNKMKKWEDMANLPPHFRERTERLERNFTVSAVIFKKYEPIFQDIFKYPQEEQPRQQRGRKQRRQPCTVSEIFHFCWVLFIYAKGNFPMISDDLVNSYHLLLCALDLVYGNALQCSNRKELVNPNFKGLSEDFHAKDSKPSSDPPCIIEKLCSLHDGLVLEAKGIKEHFWKPYIRKLYEKKLLKGKEENLTGFLEPGNFGESFKAINKAYEEYVLSVGNLDERIFLGEDAEEEIGTLSRCLNAGSGTETAERVQMKNILQQHFDKSKALRISTPLTGVRYIKENSPCVTPVSTATHSLSRLHTMLTGLRNAPSEKLEQILRTCSRDPTQAIANRLKEMFEIYSQHFQPDEDFSNCAKEIASKHFRFAEMLYYKVLESVIEQEQKRLGDMDLSGILEQDAFHRSLLACCLEVVTFSYKPPGNFPFITEIFDVPLYHFYKVIEVFIRAEDGLCREVVKHLNQIEEQILDHLAWKPESPLWEKIRDNENRVPTCEEVMPPQNLERADEICIAGSPLTPRRVTEVRADTGGLGRSITSPTTLYDRYSSPPASTTRRRLFVENDSPSDGGTPGRMPPQPLVNAVPVQNVSGETVSVTPVPGQTLVTMATATVTANNGQTVTIPVQGIANENGGITFFPVQVNVGGQAQAVTGSIQPLSAQALAGSLSSQQVTGTTLQVPGQVAIQQISPGGQQQKQGQSVTSSSNRPRKTSSLSLFFRKVYHLAAVRLRDLCAKLDISDELRKKIWTCFEFSIIQCPELMMDRHLDQLLMCAIYVMAKVTKEDKSFQNIMRCYRTQPQARSQVYRSVLIKGKRKRRNSGSSDSRSHQNSPTELNKDRTSRDSSPVMRSSSTLPVPQPSSAPPTPTRLTGANSDMEEEERGDLIQFYNNIYIKQIKTFAMKYSQANMDAPPLSPYPFVRTGSPRRIQLSQNHPVYISPHKNETMLSPREKIFYYFSNSPSKRLREINSMIRTGETPTKKRGILLEDGSESPAKRICPENHSALLRRLQDVANDRGSH
Turning to B1, the normalized luminescence ratio (NLR) is more than 40.
